This passage reports IC50, binding result and Kd results from doi:10.1101/2020.06.12.148387 (bioRxiv, 2020).

Assay [1] has as its target biotinylated SARS-CoV-2 RBD (SARS-CoV-2, UniProt P0DTC2). Briefly: cell-based ACE2 blocking assay (plate, streptavidin-HRP).
Assay [2] deals with T1, S1 subunit of SARS-CoV-1 Spike (SARS-CoV-1 (SARS-CoV), strain , UniProt P59594).
T1 construct: source: bought: Sino Biological
In words: ELISA. (In general: ELISA stands for enzyme-linked immunosorbent assay.)

The target of the next assay is SARS-CoV-2 RBD-Fc (SARS-CoV-2, strain  …, UniProt P0DTC2). Briefly: SPR. The conditions noted are these: both partners purified.
The target in assay [3] is deglycosylated SARS-CoV-2 RBD (SARS-CoV-2, UniProt P0DTC2). Briefly: crystal structure. The conditions noted are these: both partners purified.

B1: EY6A IgG (antibody, V domains shown)
VH: EVQLVESGGGVVQPGRSLRLSCAASAFTFSSYDMHWVRQAPGKGLEWVAVISYDGSNKYYADSVKGRFTISRDNSKNTLYLQMNSLRAEDTAVYYCAKDGGKLWVYYFDYWGQGTLVTVSS
VL: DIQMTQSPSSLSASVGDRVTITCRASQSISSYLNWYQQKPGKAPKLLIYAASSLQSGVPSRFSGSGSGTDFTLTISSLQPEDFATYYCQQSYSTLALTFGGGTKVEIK
notes: also called antibody EY6A; EY6A mAb; copies: 2 + 2
On to B1, for which the IC50 (usually the point on the concentration scale where inhibition reaches its midpoint) in assay [1] was determined as 54 nM. In addition, in assay [2], the binding result is “binds”.

B2: EY6A Fab (digested from IgG with papain) (Fab, V domains shown)
VH: B1 VH
VL: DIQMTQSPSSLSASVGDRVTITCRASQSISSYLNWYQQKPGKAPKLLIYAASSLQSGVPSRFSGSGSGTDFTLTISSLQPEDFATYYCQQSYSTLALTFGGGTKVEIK
notes: also called Fab-EY6A; source: digested from ExpiCHO-made IgG with papain (Pierce Fab Preparation Kit)
For the molecule B2, the Kd (usually the concentration at which binding is half-saturated) in the assay with SARS-CoV-2 RBD-Fc amounted to 2 nM.

B3: nanobody (Nb) used as crystallisation chaperone (VHH)
VHH: QVQLVESGGGLMQAGGSLRLSCAVSGRTFSTAAMGWFRQAPGKEREFVAAIRWSGGSAYYADSVKGRFTISRDKAKNTVYLQMNSLKYEDTAVYYCAQTHYVSYLLSDYATWPYDYWGQGTQVTVSS
Regarding B3, the binding result in assay [3] is reported as “binds”.
